± gives the uncertainty stated by the source.
Assay: protein stability index of a GFP-peptide fusion (yeast GPS) (PSI 1-4); higher = more stable; sorted into four equal gates, so the index is relative within each strain
How it was run: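 Tiled 17-residue peptides from yeast proteins were fused downstream of GFP on a plasmid that also expresses Cherry, and the pooled library was carried in yeast. Mid-log cultures grown in leucine-free medium were sorted into four equal gates by GFP/Cherry fluorescence ratio. Plasmids from each gate were PCR-amplified and Illumina-sequenced, and reads were assigned to strains by barcodes. Each peptide's protein stability index is the sum, over gates, of the gate's read frequency multiplied by its gate number.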

Sequence | protein stability index (doa10∆) | protein stability index (pdr5∆) | protein stability index (san1∆) | protein stability index (ubr1∆)
NIEERKEKIQHELGINI [BRR2] | 3.02 ± 0.094 | 3.34 ± 0.075 | 3.52 ± 0.075 | 3.22 ± 0.1
SKCLNLISDSNINNSSV [SWI3] | 1.94 ± 0.072 | 1.91 ± 0.065 | 1.6 ± 0.11 | 2.41 ± 0.039
EAVDDVFQAKMMDMLKQ [RPN11] | 2.42 ± 0.053 | 2.58 ± 0.058 | 2.02 ± 0.061 | 2.79 ± 0.065
VGLVSPSFMLKHHQLFY [RPN1] | 1.64 ± 0.079 | 1.7 ± 0.083 | 1.32 ± 0.16 | 1.4 ± 0.062
SQKAKLMTFNAETKSYD [YLR335W/NUP2] | 2.55 ± 0.065 | 2.27 ± 0.046 | 2.3 ± 0.057 | 2.92 ± 0.053
EPLTEIKNVIVSNRVAA [RPP0] | 1.6 ± 0.076 | 2.1 ± 0.062 | 1.77 ± 0.11 | 1.95 ± 0.07
ISKDCSAFACKTDEVII [BRR2] | 2.99 ± 0.12 | 3.38 ± 0.082 | 3.44 ± 0.088 | 2.88 ± 0.073
AQDFKTDLRFQSSAIGA [HHT1] | 1.32 ± 0.12 | 1.41 ± 0.14 | 1.24 ± 0.19 | 1.3 ± 0.23
QPYEDRPFEGLFVISTE [RRP45] | 2.96 ± 0.052 | 3.12 ± 0.048 | 3.11 ± 0.048 | 3.05 ± 0.038
NSSEKNNNNNNNNNNNN [MED2] | 3.09 ± 0.058 | 3.03 ± 0.058 | 2.95 ± 0.059 | 3.12 ± 0.053
MSLINDAMVTRTPVIIS [SMD2] | 1.26 ± 0.07 | 1.7 ± 0.066 | 1.47 ± 0.12 | 1.52 ± 0.085
SKRGNDKKHFNNKNKRV [RPC53] | 3.17 ± 0.14 | 2.7 ± 0.11 | 3.09 ± 0.14 | 2.05 ± 0.09
SSDGALCMDSSYIGTII [POP1] | 3.09 ± 0.09 | 2.71 ± 0.083 | 3.04 ± 0.12 | 3.23 ± 0.14
STGDYTFTIQLLKLTKV [YML103C/NUP188] | 1.58 ± 0.075 | 2.92 ± 0.13 | 2.16 ± 0.12 | 2.51 ± 0.11
FPNGFKNFENGPKKNVF [RPC34] | 3.26 ± 0.083 | 3.27 ± 0.082 | 3.21 ± 0.062 | 3.44 ± 0.045
TTIGDTTDKNTTDDKSM [BRN1] | 3.24 ± 0.082 | 3.33 ± 0.059 | 3.44 ± 0.044 | 3.27 ± 0.043
EDKQNIEINEDNSQDDQ [RRI2] | 3.44 ± 0.073 | 3.25 ± 0.066 | 3.23 ± 0.039 | 3.23 ± 0.04
QQMIITRLKSLLKPFHV [SIR3] | 2.17 ± 0.07 | 2.08 ± 0.053 | 2 ± 0.073 | 1.99 ± 0.035
IKSQYYSRISKLKQLLD [YIL149C/MLP2] | 1.2 ± 0.095 | 1.87 ± 0.11 | 1.64 ± 0.12 | 1.45 ± 0.068
PREDKENNRLLFECRTC [RPB9] | 3.29 ± 0.14 | 3.17 ± 0.13 | 3.02 ± 0.17 | 3.29 ± 0.16
SEDDSESGKVFIGRLPI [RPB2] | 3.36 ± 0.08 | 3.19 ± 0.073 | 3.31 ± 0.055 | 3.29 ± 0.043
PDENKTRVRLPSGAKKV [RPL2A] | 3.12 ± 0.075 | 2.96 ± 0.079 | 3.1 ± 0.037 | 3.08 ± 0.05
LELAGMDALYEKIWFAI [SIR3] | 1.41 ± 0.095 | 1.53 ± 0.068 | 1.21 ± 0.11 | 1.15 ± 0.052
NLAIVELVRLLIIDEIH [BRR2] | 2.58 ± 0.069 | 2.38 ± 0.08 | 2.85 ± 0.088 | 2.36 ± 0.062
ENLEESFLSKHALYLAP [SSN2] | 3.12 ± 0.056 | 3.31 ± 0.065 | 3.26 ± 0.044 | 3.28 ± 0.05
TVENPLRNWEELNIIPR [PRP28] | 1.49 ± 0.041 | 1.9 ± 0.054 | 1.48 ± 0.086 | 1.77 ± 0.046

From the supplement of paper PMC9732359
